The values below come from publication PMC12638815, “Targeting ACE2 with a camelid antibody inhibits SARS-CoV-2 binding and has protective effects in vivo” (Nature Communications, 2025).

The chains are these.
B1: endogenous ACE2 on Vero E6 cells (receptor, simian (endogenous in Vero E6))
chain: QSTIEEQAKTFLDKFNHEAEDLFYQSSLASWNYNTNITEENVQNMNNAGEKWSAFLKEQSTLAQMYPLQAIQNLTVKLQLQALQQNGSSVLSEDKSKRLNTILNTMSTIYSTGKVCNPNNPQECLLLDPGLNEIMEKSLDYNERLWAWEGWRSEVGKQLRPLYEEYVVLKNEMARANHYKDYGDYWRGDYEVNGVDGYDYNRDQLIEDVERTFEEIKPLYEHLHAYVRAKLMNAYPSYISPTGCLPAHLLGDMWGRFWTNLYSLTVPFGQKPNIDVTDAMVNQAWNAQRIFKEAEKFFVSVGLPNMTQGFWENSMLTDPGNVQKVVCHPTAWDLGKGDFRIIMCTKVTMDDFLTAHHEMGHIQYDMAYAAQPFLLRNGANEGFHEAVGEIMSLSAATPKHLKSIGLLSPDFQEDNETEINFLLKQALTIVGTLPFTYMLEKWRWMVFKGEIPKDQWMKKWWEMKREIVGVVEPVPHDETYCDPASLFHVSNDYSFIRYYTRTLYQFQFQEALCQAAKHEGPLHKCDISNSTEAGQKLLNMLKLGKSEPWTLALENVVGAKNMNVRPLLNYFEPLFTWLKDQNKNSFVGWSTDWSPYADQSIKVRISLKSALGANAYKWNDNEMYLFRSSVAYAMRQYFLENKHQTILFGEEDVRVADLKPRISFNFYVTAPKNVSDIIPRTEVEEAIRFSRSRINDAFQLNDNSLEFLGIQSTLIPPYQSPVTTWLIVFGVVMAVIVAGIVVLIFTGIRDRKKKNQARSEENPYASIDISKGENNPGFQNTDDVQTSF
notes: ACE2 endogenously expressed by the simian kidney cell line Vero E6; also called non-human ACE2 (Vero E6); source: endogenous, Vero E6 cells

Assay [1] concerns the target T1, VHH B07-Fc (VHH B07 in fusion with the human IgG1 Fc segment) (alpaca).
T1 construct: also called dimeric VHH-Fc; source: Expi293 cells, transfected, purified from supernatant (HiTrap protein A, SEC Superdex 75); not shown: Fc (human IgG1; hinge, CH2 and CH3), C-terminal, kept
Description: flow cytometry on cells; cell lines with exogenous or endogenous ACE2 incubated with 0.1 µg/mL VHH-Fc, 60 min at 4 °C; fluorescent anti-human IgG antibody. Conditions: one partner purified. In general terms: In flow cytometry, cells or beads pass a laser one at a time.

The target in assay [2] is T2, soluble human ACE2 peptidase domain (residues 19-615), untagged (Homo sapiens, UniProt Q9BYF1).
T2 construct: human ACE2 peptidase domain, residues 19-615, secreted with an IgK signal peptide; Residues of the thrombin site may remain at the C-terminus after cleavage; also called sACE2; soluble hACE2; source: Expi293F cells with kifunensine, purified (Streptactin, SEC, thrombin cleavage, SEC); not shown: His8, C-terminal, cleaved; Strep, C-terminal, cleaved
T2 sequence (Q9BYF1 19-615): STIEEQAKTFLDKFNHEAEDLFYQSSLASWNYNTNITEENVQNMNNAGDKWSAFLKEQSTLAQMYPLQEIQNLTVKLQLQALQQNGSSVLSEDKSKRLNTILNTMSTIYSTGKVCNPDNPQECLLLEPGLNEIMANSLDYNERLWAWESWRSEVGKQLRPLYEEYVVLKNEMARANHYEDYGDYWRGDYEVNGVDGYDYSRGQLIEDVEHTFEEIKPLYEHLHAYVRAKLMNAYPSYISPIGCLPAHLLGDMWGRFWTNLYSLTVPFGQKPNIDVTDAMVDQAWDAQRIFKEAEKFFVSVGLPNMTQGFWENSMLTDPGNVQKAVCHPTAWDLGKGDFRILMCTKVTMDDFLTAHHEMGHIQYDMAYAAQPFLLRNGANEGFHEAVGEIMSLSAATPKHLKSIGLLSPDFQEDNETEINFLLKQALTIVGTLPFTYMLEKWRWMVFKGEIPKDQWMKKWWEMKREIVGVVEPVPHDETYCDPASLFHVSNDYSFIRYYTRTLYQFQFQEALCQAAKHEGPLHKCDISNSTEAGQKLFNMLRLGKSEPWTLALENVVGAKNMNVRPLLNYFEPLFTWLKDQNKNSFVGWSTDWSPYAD
Description: BLI; VHH-His immobilised on Ni-NTA biosensors, soluble hACE2 as analyte; PBS working buffer with 300 mM NaCl, pH 7.2, 30 °C; 1:1 fit, apparent KD. Conditions: both partners purified. On the technique in general: BLI is a label-free optical method that tracks binding on a fibre tip over time.

Assay [3] concerns the target T3, hACE2 peptidase domain fused to a human Fc from IgG (Homo sapiens, UniProt Q9BYF1).
T3 construct: human angiotensin-converting enzyme 2, peptidase domain; also called hACE2-Fc; sACE2-Fc
Description: BLI; hACE2-Fc immobilised on AHC biosensors (1 µg/mL), monomeric VHHs as analytes; PBS working buffer with 300 mM NaCl, pH 7.2, 30 °C; global 1:1 fit, apparent KD. Conditions: both partners purified.

For assay [4], the target named is B1. Kind of assay: flow cytometry on cells; cell lines with exogenous or endogenous ACE2 incubated with 10 µg/mL VHH, 60 min at 4 °C; anti-myc and fluorescent anti-mouse antibody; parental cells or a control VHH as negative controls. Conditions: one partner purified.

As for B1, in assay [1], the binding result was “binds”.

B2: VHH B07 (VHH)
VHH: EVQLQASGGGLVQAGGSLRLSCAASRSTFSTNTIGWYRQAPGKQRELVASISTSGNTYYPDSVKGRFAISRDNAENTVYLQMNSLKPEDTAVYYCNTPSRRISNFWGQGTQVTVSS
notes: alpaca VHH from phage display (gene IGHV3S53); Expressed from pHEN6 with c-myc and His tags at the C-terminal end; also called anti-hACE2 VHH B07; source: E. coli TG1 periplasm, purified (His pure Cobalt sepharose beads); not shown: c-myc, C-terminal, kept; His, C-terminal, kept
Take B2: the Kd was 1140 nM in assay [2] and 242 nM in assay [3]. Moreover, the binding result in assay [4] is “binds”.

B3: VHH B09 (VHH)
VHH: QVQLVESGGGLVQAGGSLRLSCATSRSTFSSNTIGWYRQAPGKQRELVASISTSGNTYYADSVKGRFAISRDNAENTVYLQMNSLKPEDTAVYYCNTPSRRISNFWGQGTQVTVSS
notes: No structure of B09 was solved; also called anti-hACE2 VHH B09; source: E. coli TG1 periplasm, purified (His pure Cobalt sepharose beads); not shown: c-myc, C-terminal, kept; His, C-terminal, kept
Regarding B3, the Kd in assay [2] amounted to 1960 nM; in assay [3], 214 nM. Further, the binding result in assay [4] was “binds”.

B4: VHH B10 (VHH)
VHH: QVQLVESGGGLVQAGDSLRLSCAASGRTFSSYAMGWFRQALGKEREFVAVISGSGTSTYYTDSVKGRFTISRDNAKNTVYLQMNSLKPEDTAVYYCARAKGFSTIYNQDEGRYDYWGQGTQVTVSS
notes: alpaca VHH from phage display (gene IGHV3-3); also called anti-hACE2 VHH B10; source: E. coli TG1 periplasm, purified (His pure Cobalt sepharose beads); not shown: c-myc, C-terminal, kept; His, C-terminal, kept
With B4, the Kd in assay [2] was 22 nM; in assay [3], 21 nM. Moreover, the binding result in assay [4] is on record as “binds”.
